From article PMC4263517 come the findings set out here.

This series deals with Hfq (Pseudomonas aeruginosa (PAO1?)) (UniProt Q9HUM0). In words: EMSA. Particulars: biotinylated UTP 1:3 to unlabeled UTP; 50 mM Tris-HCl pH 7.5, 250 mM NaCl, 250 mM KCl (Hfq annealing buffer); RNA renatured 80 C 1 min; room temperature 20 min; 7.5% TGX native gel.
Hfq (Pseudomonas aeruginosa (PAO1?)), sequence (Q9HUM0 whole entry): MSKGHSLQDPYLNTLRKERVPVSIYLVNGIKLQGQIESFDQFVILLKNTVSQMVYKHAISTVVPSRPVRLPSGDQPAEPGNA

“AACUGGUCGCGAGAUCAGCCGGUAAGCUGAGAGACCCACGCAGUCGGACUCUUCAGAUUAUCUCCUCAUCAGGCUAAUCACGGUUUUUGACCCGGCACUUUGCCGGGUCUUUUUUUGCCUGCGAUUCGGCCGGAGACGACCGUUCAUCGGCUGGCGAUGGAAUGAAUGAGAACCGGCUUGACCUGAUAAUGAGAAUAGUUAUUAUUACACCAACUGGUCGCGAGGCCAGCAGGUAAGCUGAGAGACCAAGCAGUCGGACUCUUCAGAUUAUCUCCUCAUCAGGCUAAUCACGGUUUCGACCCGGCACUUUGCCGGGUCUUUUUUU [PrrH sRNA]” returned a binding of 11 ng/µL.
